Test results taken from article PMC3810769 (Molecular Biology of the Cell, 2013).
Like-named read-outs stand apart in the source and are kept apart here.

T1: nebulette SH3 domain fused to glutathione S-transferase (human (by the printed UniProt entry …, UniProt O76041 954-1014))
T1 sequence (looked up): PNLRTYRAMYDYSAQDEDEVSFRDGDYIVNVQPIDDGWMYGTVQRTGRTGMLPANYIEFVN

T2: nebulette SH3 domain (residues 955-1014) (human (by the printed UniProt entry …, UniProt O76041 955-1014))
T2 sequence (looked up): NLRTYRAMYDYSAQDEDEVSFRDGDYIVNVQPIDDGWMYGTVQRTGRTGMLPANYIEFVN

T3: nebulin SH3 domain (UniProt P20929 8466-8525)
T3 sequence (looked up): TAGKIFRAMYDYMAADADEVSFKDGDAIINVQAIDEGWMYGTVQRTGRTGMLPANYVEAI


How the values were obtained:
[1] = biological target: T1, nebulette SH3 domain fused to …; assay: peptide or protein array
[2] = biological target: T2, nebulette SH3 domain (residues 955-1014); assay: ITC
nebulin SH3 domain [3] = biological target: T3, nebulin SH3 domain; assay: ITC
nebulin SH3 domain [4] = biological target: T3, nebulin SH3 domain; assay: ITC; remark: listed apart in the source

binding result [1] | Kd [2] | dH [2] | stoichiometry N [2] | Kd (nebulin SH3 domain [3]) | dH (nebulin SH3 domain [3]) | stoichiometry N (nebulin SH3 domain [3]) | Kd (nebulin SH3 domain [4]) | Binder
binds |  |  |  |  |  |  |  | GVLPPPTLPKPK [XIRP2 PR6 peptide GVLPPPTLPKPK]
 | 12.9 µM | -8.46 kcal/mol | 1.12 | 9.61 µM | -9.43 kcal/mol | 1.02 | 9.3 µM | PPPTLPKPKLPKH [synthetic 13-mer XIRP2 peptide PPPTLPKPKLPKH]
